Test results taken from PMC7794362, “Structural basis for distinct inflammasome complex assembly by human NLRP1 and CARD8” (Nature Communications, 2021).

B5: CASP1-CARD-SNAP (domain or fragment, human, UniProt P29466 1-92, looked up)
chain: MADKVLKEKRKLFIRSMGEGTINGLLDELLQTRVLNKEEMEKVKRENATVMDKTRALIDSVIPKGAQACQICITYICEEDSYLAGTLGLSAD
modifications: Alexa Fluor 647 (BG-Alexa dye) on the SNAP tag in the native gel assay
notes: CARD domain of human caspase-1, residues 1-92; A 3C protease site lies between the CARD and the SNAP tag; also called SNAP-tagged CASP1-CARD; fluorescently labeled CASP1-CARD; not shown: SNAP, C-terminal, kept

How the values were obtained:
[1] = biological target: the molecule itself; assay: cryo-EM structure; helical reconstruction of CARD filaments; ~2 mg/ml on Quantifoil R1.2/1.3 grids, Titan Krios 300 kV, RELION 3.0
[2] = biological target: the molecule itself; assay: negative stain EM; recombinant NLRP1 constructs at various concentrations (Fig. 1e, f); samples below ~200 uM; NLRP1-CARD alone or with FIIND^UPA at 1:1 molar ratio
CASP1-CARD-SNAP = biological target: B5; assay: native gel or EMSA; in vitro oligomerization assay: Alexa Fluor 647-labelled monomeric SNAP-ASC-CARD or CASP1-CARD-SNAP (10 uM) mixed with 20 or 5 uM seed oligomer for 15 min at room temperature; Bis-Tris native PAGE, fluorescence scan; settings: both partners purified
[3] = biological target: the molecule itself; assay: as above
[4] = biological target: T1, NLRC4-CARD without SNAP (filament seed) (human, UniProt Q9NPP4 1-102); assay: as above; settings: both partners purified
T1 construct: CARD domain of human NLRC4, residues 1-102, construct without SNAP tag; source: E. coli BL21(DE3), purified (Ni-NTA, SEC), oligomeric seed fraction
T1 sequence (looked up): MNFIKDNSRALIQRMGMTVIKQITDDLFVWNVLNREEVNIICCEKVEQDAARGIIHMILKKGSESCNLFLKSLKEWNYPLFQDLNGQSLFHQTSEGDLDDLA

B1: recombinant NLRP1-CARD (filament solved by cryo-EM) (domain or fragment, human, UniProt Q9C000 1374-1466, looked up)
chain: DAPQLLHFVDQYREQLIARVTSVEVVLDKLHGQVLSQEQYERVLAENTRPSQMRKLFSLSQSWDRKCKDGLYQALKETHPHLIMELWEKGSKK
notes: CARD domain of human NLRP1, construct 1374-1466; the results say that trimming of the last eight a.a; (1466-1473) stabilised the homogeneous single filament; two CARD constructs (1374-1466, 1374-1473) were cloned; also called NLRP1-CARD core filament; source: E. coli BL21(DE3), purified (Ni-NTA, SEC), concentrated to ~400 uM
B1: binds [1].

B2: recombinant NLRP1-FIIND^UPA-CARD (a.a. 1213-1473), bacteria-derived (domain or fragment, human, UniProt Q9C000 1213-1473, looked up)
chain: SPLGVLLKMIHNALRFIPVTSVVLLYHRVHPEEVTFHLYLIPSDCSIRKAIDDLEMKFQFVRIHKPPPLTPLYMGCRYTVSGSGSGMLEILPKELELCYRSPGEDQLFSEFYVGHLGSGIRLQVKDKKDETLVWEALVKPGDLMPATTLIPPARIAVPSPLDAPQLLHFVDQYREQLIARVTSVEVVLDKLHGQVLSQEQYERVLAENTRPSQMRKLFSLSQSWDRKCKDGLYQALKETHPHLIMELWEKGSKKGLLPLSS
notes: C-terminal auto-cleavage fragment (FIIND^UPA-CARD) of human NLRP1, a.a; 1213-1473; also called NLRP1-FIIND^UPA-CARD filaments; SNAP-NLRP1-FIIND^UPA-CARD
B2 was tested, and the “fold lower concentration requirement for oligomerization, against NLRP1-CARD” value [2] was at least 50 fold.

B3: NLRC4-CARD filament (SNAP tag cleaved off), solved by cryo-EM (domain or fragment, human, UniProt Q9NPP4 1-102, looked up)
chain: MNFIKDNSRALIQRMGMTVIKQITDDLFVWNVLNREEVNIICCEKVEQDAARGIIHMILKKGSESCNLFLKSLKEWNYPLFQDLNGQSLFHQTSEGDLDDLA
notes: CARD domain of human NLRC4, residues 1-102; also called NLRC4-CARD thin filament; source: E. coli BL21(DE3), purified; filaments grown from SNAP-tagged monomer with seeds, SNAP cleaved by 3C protease, Superose 6; not shown: SNAP, C-terminal, cleaved
B3: binds [1].

B4: recombinant CARD8-CARD (451-537) (domain or fragment, human, UniProt Q9Y2G2-5 451-537, looked up)
chain: AAFVKENHRQLQARMGDLKGVLDDLQDNEVLTENEKELVEQEKTRQSKNEALLSMVEKKGDLALDVLFRSISERDPYLVSYLRQQNL
notes: CARD domain of human CARD8, residues 451-537; the numbers fit the 537-residue isoform; Called 'untagged' in the seeding experiment, there meaning without the SNAP tag; also called CARD8-CARD filaments; CARD8-CARD without SNAP; source: E. coli BL21(DE3), purified (Ni-NTA, SEC)
B4: binds [1]; binds (CASP1-CARD-SNAP).

B5: binds [3]; binds [4].
